Km and Vmax data for one protein are collected here from ChEMBL document CHEMBL3525898, “Pharmacogenomics of gemcitabine metabolism: functional analysis of genetic variants in cytidine deaminase and deoxycytidine kinase” (Drug Metab Dispos, 2013).

Substrate in this series: Nc1ccn([C@@H]2O[C@H](CO)[C@@H](O)C2(F)F)c(=O)n1
As to the kind of experiment: Activity of human recombinant N-terminal His-SUMO fused wild type CDA expressed in Escherichia coli BL21(DE3) cells assessed as 2',2'-difluorodeoxyuridine formation by liquid chromatography-tandem mass spectrometry. The class given is ADME.

B1: Cytidine deaminase (Homo sapiens) (protein)
chain: MAQKRPACTLKPECVQQLLVCSQEAKKSAYCPYSHFPVGAALLTQEGRIFKGCNIENACYPLGICAERTAIQKAVSEGYKDFRAIAIASDMQDDFISPCGACRQVMREFGTNWPVYMTKPDGTYIVMTVQELLPSSFGPEDLQKTQ
As to B1, the Km turned out to be 630 µM and the Vmax came to 0.187 µmol/min/mg.

By Km is commonly meant the substrate concentration at which the rate is half of its maximum. A word on the Vmax: it is the top rate of the reaction or transport when substrate is in excess.
